Source: patent US6627200

Target: CD137 ligand expressed by the monocytes (human) (UniProt P41273)
Assay: cell-based or functional assay

Chain of UniProt P41273 (P41273 whole entry): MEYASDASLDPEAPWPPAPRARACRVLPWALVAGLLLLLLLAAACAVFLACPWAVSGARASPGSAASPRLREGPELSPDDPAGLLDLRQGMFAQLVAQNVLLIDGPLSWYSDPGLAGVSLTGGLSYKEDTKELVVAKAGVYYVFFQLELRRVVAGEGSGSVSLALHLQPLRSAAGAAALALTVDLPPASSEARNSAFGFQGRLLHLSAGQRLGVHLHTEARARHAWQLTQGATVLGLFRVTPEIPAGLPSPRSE

3H-thymidine incorporation of peripheral monocytes on immobilized CD137-Fc, against control cells: > 30 fold
Substance: Recombinant CD137-Fc protein, consisting of the extracellular domain of human CD137 and the constant domain of human immunoglobulin G1 (Fc) (from UniProt Q07011 18-186) (Fc fusion)
